Tests used:
[1] = target: heat shock protein 60 (Hsp60) on human ileocecal epithelial HCT-8 cells (human (endogenous in HCT-8)) (UniProt P10809); assay: adhesion of protein-coated fluospheres to cell monolayers; as the fluosphere assay on HCT-8 monolayers, but protein concentrations adjusted to have an equal number of molecules of each protein before immobilising on beads
[2] = target: heat shock protein 60 (Hsp60) on human ileocecal epithelial HCT-8 cells (human (endogenous in HCT-8)) (UniProt P10809); assay: adhesion of protein-coated fluospheres to cell monolayers; sulphate-modified fluospheres (1.0 µm) coated with 160 µg/mL of each purified protein (average bound 140 µg/ml) or 0.1% BSA, added to confluent HCT-8 monolayers (cells to spheres about 1:100), 2 h at 37°C, washed five times, read at 485/538 nm; also after pretreatment of cells with anti-Hsp60 MAb (1 µg/well, 1 h)
[3] = target: LAP subdomain N2 (Gly224–Gly411) (Listeria monocytogenes (strain F4244)); assay: ELISA; called immunofluorescence assay in microtiter plates: LAP proteins immobilised at 62.5–500 ng/100 µL (0.05 M sodium carbonate, pH 9.6) in Immulon 4HBX plates; Hsp60 100 µL of 2.4 µg/mL, RT 1.5 h; anti-Hsp60, HRP anti-mouse, fluorescent substrate Super Red; controls subtracted; KD from the 1-site binding equation (Prism 3)
[4] = target: Listeria adhesion protein (LAP), full-length (Listeria monocytogenes); assay: as above

Row | Substance | mean fluorescence unit (fluorescence unit) [1] | mean fluorescence unit (fluorescence unit) [2] | Kd [3] | Kd [4]
1 | LAP subdomain N2 (Gly224–Gly411) (domain or fragment) | 1360 | 1400 | – | –
2 | Listeria adhesion protein (LAP), full-length (natural protein) | 1380 | 999 | – | –
3 | heat shock protein 60 (Hsp60), purified (from UniProt P10809 27-573) (natural protein) | – | – | 9.51 nM | 7.17 nM
